Where two headings read alike, the source gives them in different places.
Key:
[1] = biological target: phosphorylated PmrA S119T (Acinetobacter baumannii (strain ATCC 19606)); assay: native gel or EMSA; Native PAGE after reaction of 40 uM PmrA with 20 uM PmrB and ATP (phosphorylated PmrA); 14% Tris-glycine gel, 4 C
[2] = biological target: phosphorylated PmrA I13M (Acinetobacter baumannii (strain ATCC 19606)); assay: as above
[3] = test system: PmrA M12I (Acinetobacter baumannii ATCC 19606); assay: fluorescence anisotropy
[4] = test system: PmrA I13M (Acinetobacter baumannii ATCC 19606); assay: fluorescence anisotropy
[5] = test system: PmrA M12I (Acinetobacter baumannii ATCC 19606); assay: fluorescence anisotropy; remark: listed apart in the source
[6] = test system: PmrA I13M (Acinetobacter baumannii ATCC 19606); assay: fluorescence anisotropy; remark: listed apart in the source
[7] = biological target: phosphorylated WT PmrA (Acinetobacter baumannii (strain ATCC 19606)); assay: native gel or EMSA; Native PAGE after reaction of 40 uM PmrA with 20 uM PmrB and ATP (phosphorylated PmrA); 14% Tris-glycine gel, 4 C
[8] = biological target: phosphorylated PmrA D10N (Acinetobacter baumannii (strain ATCC 19606)); assay: as above
[9] = biological target: phosphorylated PmrA G54E (Acinetobacter baumannii (strain ATCC 19606)); assay: as above
[10] = biological target: phosphorylated PmrA M12I (Acinetobacter baumannii (strain ATCC 19606)); assay: as above

“phosphorylated PmrA S119T (natural protein)” showed a stoichiometry N [1] of 2.
For “phosphorylated PmrA I13M (natural protein)”, the stoichiometry N [2] was 2.
AbpmrC_30mer FAM gave a Kd [3] of 0.0423 µM, a Kd [4] of 17.4 µM and a Kd [5] of 21 µM. It also gave a Kd [6] of 0.0516 µM.
“phosphorylated WT PmrA (natural protein)” was tested, and the stoichiometry N [7] was 2.
Work on “phosphorylated PmrA D10N (natural protein)” yielded a stoichiometry N [8] of 2.
“phosphorylated PmrA G54E (natural protein)” was tested, and the stoichiometry N [9] was 2.
Work on “phosphorylated PmrA M12I (natural protein)” yielded a stoichiometry N [10] of 2.
